The target of this test is T1, human CD154 (human, UniProt P29965 113-261, limits assumed, biotin-labeled).
T1 construct: also called biotin-labeled human CD154; biotinylated human CD154
T1 sequence (looked up): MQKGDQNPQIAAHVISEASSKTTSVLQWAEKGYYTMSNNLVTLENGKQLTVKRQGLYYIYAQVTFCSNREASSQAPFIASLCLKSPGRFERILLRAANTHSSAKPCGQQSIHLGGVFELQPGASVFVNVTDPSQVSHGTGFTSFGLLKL
As to the kind of experiment: ECL competition, CD3ε[+]: CD3ε homodimer added as competitor [1].

Experimental: Next, each obtained IgG was evaluated for its binding to CD3 and human CD154 at the same time by the competition method (electrochemiluminescence method (ECL method)).
A TBST solution containing 0.5% BSA (referred to as a blocking solution; the TBST solution was TBS (manufactured by Takara Bio Inc.) supplemented with 0.1% Tween 20) was added at 150 μL/well to streptavidin plate (MSD K.K.), and the plate was incubated at room temperature for 1 hour or longer. After removal of the blocking solution, each well was washed three times with 250 μL of a TBST solution. The antibody-antigen complex solution was added thereto at 50 μL/well, and the plate was incubated at room temperature for 1 hour so that the biotinylated antigen-antibody-detection sulfo-tag antibody complex solution bound via the biotinylated antigen to the streptavidin plate. After removal of the antibody-antigen complex solution, each well was washed three times with a TBST solution, and a solution of 4×READ buffer (MSD K.K.) diluted 2-fold with water was added thereto at 150 μL/well, followed by the detection of the luminescence signal of the sulfo-tag using Sector Imager 2400 (MSD K.K.).

B1: 154R3A01#3 one-arm antibody (antibody, human IgG1, kappa, L234A L235A, N297A)
heavy: QVQLVESGGGLVQPGRSLRLSCAASGFAFSNAWMHWVRQAPGKGLEWVAQIKDRVNQYANYYAESVKGRFTISRDDSKNSIYLQMNSLKTEDTAVYYCRYVHYGLTGYFSGQGGVDAWGQGTTVTVSSASTKGPSVFPLAPSSKSTSGGTAALGCLVKDYFPEPVTVSWNSGALTSGVHTFPAVLQSSGLYSLSSVVTVPSSSLGTQTYICNVNHKPSNTKVDKKVEPKSCDKTHTCPPCPAPEAAGGPSVFLFPPKPKDTLMISRTPEVTCVVVDVSHEDPEVKFNWYVDGVEVHNAKTKPREEQYASTYRVVSVLTVLHQDWLNGKEYKCKVSNKALPAPIEKTISKAKGQPREPQVYTLPPSRCELTKNQVSLSCAVKGFYPSDIAVEWESNGQPENNYKTTPPVLDSDGSFFLVSKLTVDKSRWQQGNVFSCSVMHEALHNHYTQKSLSLSPDYKDDDDK
chain: EPKSSDKTHTCPPCPAPELLGGPSVFLFPPKPKDTLMISRTPEVTCVVVDVSHEDPEVKFNWYVDGVEVHNAKTKPREEQYNSTYRVVSVLTVLHQDWLNGKEYKCKVSNKALPAPIEKTISKAKGQPREPQVCTLPPSRDELTKNQVSLWCLVKGFYPSDIAVEWESNGQPENNYKTTPPVLDSDGSFFLYSKLTVDKSRWQQGNVFSCSVMHEALHNRYTQKSLSLSP
light: DIVMTQSPLSLPVTPGEPASISCRSSQSLVHSNRNTYLHWYQQKPGQAPRLLIYKVSNRFSGVPDRFSGSGSGTDFTLKISRVEAEDVGVYYCGQGTQVPYTFGQGTKLEIKRTVAAPSVFIFPPSDEQLKSGTASVVCLLNNFYPREAKVQWKVDNALQSGNSQESVTEQDSKDSTYSLSSTLTLSKADYEKHKVYACEVTHQGLSSPVTKSFNRGEC
notes: As m48
Regarding B1, the “relative ECL reaction (to no antigen coating)” value stood at 19.

B2: 154R3F02#2 one-arm antibody (antibody, human IgG1, kappa, L234A L235A, N297A)
heavy: QVQLVESGGGLVQPGRSLRLSCAASGFTFSNAWMHWVRQAPGKGLEWVAQIKDRASGYNNYYAESVKGRFTISRDDSKNSIYLQMNSLKTEDTAVYYCRYVHYAQSVSAFFQYGVDAWGQGTTVTVSSASTKGPSVFPLAPSSKSTSGGTAALGCLVKDYFPEPVTVSWNSGALTSGVHTFPAVLQSSGLYSLSSVVTVPSSSLGTQTYICNVNHKPSNTKVDKKVEPKSCDKTHTCPPCPAPEAAGGPSVFLFPPKPKDTLMISRTPEVTCVVVDVSHEDPEVKFNWYVDGVEVHNAKTKPREEQYASTYRVVSVLTVLHQDWLNGKEYKCKVSNKALPAPIEKTISKAKGQPREPQVYTLPPSRCELTKNQVSLSCAVKGFYPSDIAVEWESNGQPENNYKTTPPVLDSDGSFFLVSKLTVDKSRWQQGNVFSCSVMHEALHNHYTQKSLSLSPDYKDDDDK
chain: EPKSSDKTHTCPPCPAPELLGGPSVFLFPPKPKDTLMISRTPEVTCVVVDVSHEDPEVKFNWYVDGVEVHNAKTKPREEQYNSTYRVVSVLTVLHQDWLNGKEYKCKVSNKALPAPIEKTISKAKGQPREPQVCTLPPSRDELTKNQVSLWCLVKGFYPSDIAVEWESNGQPENNYKTTPPVLDSDGSFFLYSKLTVDKSRWQQGNVFSCSVMHEALHNRYTQKSLSLSP
light: DIVMTQSPLSLPVTPGEPASISCRSSQSLVHSNRNTYLHWYQQKPGQAPRLLIYKVSNRFSGVPDRFSGSGSGTDFTLKISRVEAEDVGVYYCGQGTQVPYTFGQGTKLEIKRTVAAPSVFIFPPSDEQLKSGTASVVCLLNNFYPREAKVQWKVDNALQSGNSQESVTEQDSKDSTYSLSSTLTLSKADYEKHKVYACEVTHQGLSSPVTKSFNRGEC
notes: As m48
For the molecule B2, the “relative ECL reaction (to no antigen coating)” value came to 16.

B3: 154R3B01#1 one-arm antibody (antibody, human IgG1, kappa, L234A L235A, N297A)
heavy: QVQLVESGGGLVQPGRSLRLSCAASGFTFSSAWMHWVRQAPGKGLEWVAQIKDKQNQYNAYYAESVKGRFTISRDDSKNSIYLQMNSLKTEDTAVYYCRYVHYATSDGFLPYFGVDAWGQGTTVTVSSASTKGPSVFPLAPSSKSTSGGTAALGCLVKDYFPEPVTVSWNSGALTSGVHTFPAVLQSSGLYSLSSVVTVPSSSLGTQTYICNVNHKPSNTKVDKKVEPKSCDKTHTCPPCPAPEAAGGPSVFLFPPKPKDTLMISRTPEVTCVVVDVSHEDPEVKFNWYVDGVEVHNAKTKPREEQYASTYRVVSVLTVLHQDWLNGKEYKCKVSNKALPAPIEKTISKAKGQPREPQVYTLPPSRCELTKNQVSLSCAVKGFYPSDIAVEWESNGQPENNYKTTPPVLDSDGSFFLVSKLTVDKSRWQQGNVFSCSVMHEALHNHYTQKSLSLSPDYKDDDDK
chain: EPKSSDKTHTCPPCPAPELLGGPSVFLFPPKPKDTLMISRTPEVTCVVVDVSHEDPEVKFNWYVDGVEVHNAKTKPREEQYNSTYRVVSVLTVLHQDWLNGKEYKCKVSNKALPAPIEKTISKAKGQPREPQVCTLPPSRDELTKNQVSLWCLVKGFYPSDIAVEWESNGQPENNYKTTPPVLDSDGSFFLYSKLTVDKSRWQQGNVFSCSVMHEALHNRYTQKSLSLSP
light: DIVMTQSPLSLPVTPGEPASISCRSSQSLVHSNRNTYLHWYQQKPGQAPRLLIYKVSNRFSGVPDRFSGSGSGTDFTLKISRVEAEDVGVYYCGQGTQVPYTFGQGTKLEIKRTVAAPSVFIFPPSDEQLKSGTASVVCLLNNFYPREAKVQWKVDNALQSGNSQESVTEQDSKDSTYSLSSTLTLSKADYEKHKVYACEVTHQGLSSPVTKSFNRGEC
notes: As m48
As to B3, the “relative ECL reaction (to no antigen coating)” value is 18.

B4: 154R3A01#4 one-arm antibody (antibody, human IgG1, kappa, L234A L235A, N297A)
heavy: QVQLVESGGGLVQPGRSLRLSCAASGFTFSNAWMHWVRQAPGKGLEWVAQIKDRVNQYANYYAECVKGRFTISRDDSKNSIYLQMNSLKTEDTAVYYCRYVHYGLTGYFSGQGGVDAWGQGTTVTVSSASTKGPSVFPLAPSSKSTSGGTAALGCLVKDYFPEPVTVSWNSGALTSGVHTFPAVLQSSGLYSLSSVVTVPSSSLGTQTYICNVNHKPSNTKVDKKVEPKSCDKTHTCPPCPAPEAAGGPSVFLFPPKPKDTLMISRTPEVTCVVVDVSHEDPEVKFNWYVDGVEVHNAKTKPREEQYASTYRVVSVLTVLHQDWLNGKEYKCKVSNKALPAPIEKTISKAKGQPREPQVYTLPPSRCELTKNQVSLSCAVKGFYPSDIAVEWESNGQPENNYKTTPPVLDSDGSFFLVSKLTVDKSRWQQGNVFSCSVMHEALHNHYTQKSLSLSPDYKDDDDK
chain: EPKSSDKTHTCPPCPAPELLGGPSVFLFPPKPKDTLMISRTPEVTCVVVDVSHEDPEVKFNWYVDGVEVHNAKTKPREEQYNSTYRVVSVLTVLHQDWLNGKEYKCKVSNKALPAPIEKTISKAKGQPREPQVCTLPPSRDELTKNQVSLWCLVKGFYPSDIAVEWESNGQPENNYKTTPPVLDSDGSFFLYSKLTVDKSRWQQGNVFSCSVMHEALHNRYTQKSLSLSP
light: DIVMTQSPLSLPVTPGEPASISCRSSQSLVHSNRNTYLHWYQQKPGQAPRLLIYKVSNRFSGVPDRFSGSGSGTDFTLKISRVEAEDVGVYYCGQGTQVPYTFGQGTKLEIKRTVAAPSVFIFPPSDEQLKSGTASVVCLLNNFYPREAKVQWKVDNALQSGNSQESVTEQDSKDSTYSLSSTLTLSKADYEKHKVYACEVTHQGLSSPVTKSFNRGEC
notes: As m48
Turning to B4, the “relative ECL reaction (to no antigen coating)” value worked out at 4.

The record behind these values is patent US20260049138A1 (Chugai, published 2026).
